Key:
humanized Pear1 mice [1] = experiment: Subcutaneous mucosal adhesion model, HE and Masson staining at wounded site; assay type: in vivo; details: 5 micrograms at the wounded site every 7 days; 14th day; versus control group
Description: Mice were anesthetized by intraperitoneal injection of pentobarbital sodium. The hair is depilated and sterilized, and the skin is excised. A thin layer of bonding agent was applied to one side of the silicone plate to fix the wound concentrically with a clamping board. Each clamping board was sutured at regular intervals with eight stitches to secure it to the intact tissue around the wound, preventing contraction of the wound edges. Sterile dressings were cut into circular shapes and attached to the silicone board for protecting the wound, preventing the animals from scratching or chewing. The anti-human Pear1 monoclonal antibody was […].
Mice were anesthetized using isoflurane, maintaining a flow of 2% isoflurane. The sterile dressings on the silicone board were peeled off (or not peeled off). Pictures were taken at the wounded sites next to the fixed position and scale bar. If necessary, sterile dressings can be reapplied. Image J was used to process the photos. The wounded area can be calculated according to the circled area by the scale.
[…] were fixed in 4% paraformaldehyde for 48 hours, after paraffin embedding, a semi-automatic rotary slicing machine (Leica; rm2235 and cm1950) was used for slicing, dewaxing is carried out at room temperature, gradient ethanol is used for rehydration, HE and Masson staining were then performed.
Subsequently, in order to detect the role of targeting Pear1 in inhibiting adhesion formation in vivo, the inventors constructed an adhesion model in humanized Pear1 mice, and at the same time instilled anti-human Pear1 monoclonal antibodies (including LF2 or hLF105) each at a dose of 5 micrograms at the wounded site, with once administration every 7 days. On the 14th day, the subcutaneous mucosal tissue at the wounded site was removed, stained with HE and Masson, and photographed under a microscope. The thickness of the subcutaneous mucosa and skin and the area of collagen were counted by Image J software for indicating the formation of adhesions.

[2] = tested on: subcutaneous mucosal fibroblasts; experiment: TGFβ activated mucosal fibroblasts treated with antibody: hydroxyproline in supernatant and QPCR of Col7a1, ACTA2; assay type: cell-based, humanized Pear1 mice; details: 1 μg/mL antibody, 10 ng/mL TGFβ, 48 hours; versus control group
Experimental: After the treatment of starvation in cultured mucosal or subcutaneous derived fibroblasts for 12 hours, 1 μg/mL anti-human Pear1 monoclonal antibody (including LF2 antibody or hLF105 antibody) was added separately to treat the cells. After 30 minutes, 10 ng/mL TGFβ was added to treat the cells for 48 hours, then the cell supernatant was collected. The content of hydroxyproline was detected using the hydroxyproline detection kit of Nanjing Jiancheng Biology Co., Ltd. according to the instructions.
Mucosal fibroblasts in Method 5 were collected. Total mRNA was extracted by Trizol method (Invitrogen, Carlsbad, CA) according to standard protocols. Complementary DNA was synthesized using reverse transcriptase (Takara). ABI7000 Real-time PCR instrument (Life Technologies) was used to detect gene expression and the PCR primer sequences are shown in Table 5. The 18sRNA gene was used as an internal reference.
To further investigate the role of targeting Pear1 in inhibiting mucosal fibroblast activation, subcutaneous mucosal fibroblasts were isolated from humanized Pear1 mice and cultured in vitro. TGFβ activated fibroblasts were treated with anti-human Pear1 monoclonal antibodies (including LF2 or hLF105) for 48 hours, and the supernatants were collected to detect the content of hydroxyproline. The cells were collected for QPCR to detect the expression levels of extracellular matrix proteins such as collagen 7a1 (Col 7a1) and smooth muscle actin a2 (ACTA2) to characterize fibroblast activation and collagen synthesis.

humanized Pear1 mice [3] = experiment: Peritoneal adhesion model, indicators related to adhesion (immunohistochemistry or RT-PCR); assay type: in vivo; details: versus control group
Description: (§1) The model was made in humanized mice within 3 cm from the caecums of vermiform in peritoneal cavity, following the methods in the literature (Zhiliang Zhang, et al., Characteristics of genesis and development of peritoneal adhesion by different causes: experiment with rats, Chinese Journal of Medicine, 2005). The mice were divided into 3 groups. groups, with 20 mice in each group: A, control group with normal saline; B, prophylactic intraperitoneal injection of anti-human Pear1 monoclonal antibody (including LF2 or hLF105 antibody) 0.5 mg/kg, once a week; C, prophylactic intraperitoneal injection of anti-human Pear1 monoclonal antibody 1 mg/kg, once a week. After the mice were euthanized at 2 time points of 2 weeks and 4 weeks, an inverted “U”-shaped incision was selected to enter the abdomen, avoiding the original surgical incision. […] And the degree of adhesion in the peritoneal adhesion model was evaluated.
(§2) For fibroblast-specific Pear1 knockout mice, a peritoneal adhesion model was used to form a sham operation on the mice. The model preparation and animal grouping were as described above.
Immunohistochemistry or RT-PCR was used to measure some indicators related to adhesion formation to reflect the severity of adhesion, such as: fibrinogen (FIB), α-smooth actin (α-SMA), MMPs/TIMPs, transforming growth factor (TGF-β1), vascular endothelial growth factor (VEGF).

humanized Pear1 mice [4] = experiment: Peritoneal adhesion model, BhatiaDS score; assay type: in vivo; design: key to BhatiaDS score: grade 0: no adhesion; grade I: adhesive area of the area treated in the caecums of vermiform/total area of the treated area<50%, easy for blunt separation; grade II: above-mentioned area ratio≥50%, easy for blunt dissection; Grade III: Regardless of the size of the adhesive area, as long as the adhesion is difficult to separate, blunt separation can still be performed, but the intestinal wall is obviously damaged after separation; Grade IV: Regardless of the size of the adhesive area, as long as the adhesion is firm and can no longer be bluntly separated, required sharp separation
Description: The model was made in humanized mice within 3 cm from the caecums of vermiform in peritoneal cavity, following the methods in the literature (Zhiliang Zhang, et al., Characteristics of genesis and development of peritoneal adhesion by different causes: experiment with rats, Chinese Journal of Medicine, 2005). The mice were divided into 3 groups. groups, with 20 mice in each group: A, control group with normal saline; B, prophylactic intraperitoneal injection of anti-human Pear1 monoclonal antibody (including LF2 or hLF105 antibody) 0.5 mg/kg, once a week; C, prophylactic intraperitoneal injection of anti-human Pear1 monoclonal antibody 1 mg/kg, once a week. After the mice were euthanized at 2 time points of 2 weeks and 4 weeks, an inverted “U”-shaped incision was selected to enter the abdomen, avoiding the original surgical incision. […] And the degree of adhesion in the peritoneal adhesion model was evaluated. […]
According to the scoring standard of BhatiaDS, grade 0: no adhesion; grade I: adhesive area of the area treated in the caecums of vermiform/total area of the treated area<50%, easy for blunt separation; grade II: above-mentioned area ratio≥50%, easy for blunt dissection; Grade III: Regardless of the size of the adhesive area, as long as the adhesion is difficult to separate, blunt separation can still be performed, but the intestinal wall is obviously damaged after separation; Grade IV: Regardless of the size of the adhesive area, as long as the adhesion is firm and can no longer be bluntly separated, required sharp separation. Each mouse was scored by 3 people respectively, and the average value was taken as the score of adhesion in this sample.

humanized Pear1 mice [5] = experiment: Peritoneal adhesion model, determination of hydroxyproline in tissues; assay type: in vivo; details: versus control group
Description: as §1, §2
The formation of tissue adhesion depends on the synthesis of collagen and hydroxyproline is the precursor of collagen synthesis. […]

B1: hLF105: humanized anti-human Pear1 antibody; VH SEQ ID NO: 8, VL SEQ ID NO: 22 (antibody, V domains shown)
VH: QVQLVQSGAEVKKPGASVKVSCKASGYTFTGYPMNWVRQAPGKRLEWMGVINPYNGGTSYNQKFKGRATLTVDTSASTAYMELSSLRSEDTAVYYCARGGVRPFAYWGQGTLVTVSS
VL: DIQMTQSPSSLSASVGDRVTITCKASEDIYNRLAWYQQKPGKAPKLLISGATSLETGVPSRFSGSGSGNDFTLTISSLQPEDFATYYCQQYWSTPTFGQGTKLEIK
collagen deposition in the subcutaneous mucosa at wounded sites (Masson staining) (humanized Pear1 mice [1]): less collagen deposition
dermal thickness at wounded sites (HE staining) (humanized Pear1 mice [1]): smaller dermal thickness
fibroblasts at wounded sites (HE staining) (humanized Pear1 mice [1]): fewer fibroblasts
ability to synthesize extracellular matrix [2]: inhibited
activation of fibroblasts [2]: inhibited
indicators related to adhesion (FIB, α-SMA, MMPs/TIMPs, TGF-β1, VEGF) (humanized Pear1 mice [3]): significantly lower
BhatiaDS score (humanized Pear1 mice [4]; 0.5 mg/kg intraperitoneal once a week, 2 weeks (n = 8)): II (grade II: above-mentioned area ratio≥50%, easy for blunt dissection)
BhatiaDS score (humanized Pear1 mice [4]; 0.5 mg/kg intraperitoneal once a week, 4 weeks (n = 8)): I (grade I: adhesive area of the area treated in the caecums of vermiform/total area of the treated area<50%, easy for blunt separation)
BhatiaDS score (humanized Pear1 mice [4]; 1.0 mg/kg intraperitoneal once a week, 2 weeks (n = 8)): III
BhatiaDS score (humanized Pear1 mice [4]; 1.0 mg/kg intraperitoneal once a week, 4 weeks (n = 8)): II (grade II: above-mentioned area ratio≥50%, easy for blunt dissection)
BhatiaDS score compared with the control group (humanized Pear1 mice [4]; versus control group, especially in the high-dose group (1.0 mg/kg)): significantly lower
hydroxyproline content in tissues (humanized Pear1 mice [5]): significantly lower

From patent US20240327510A1, “DRUG FOR PREVENTING, ALLEVIATING OR TREATING MUCOSAL ADHESION AND USE THEREOF” (SHANGHAI SYNVIDA BIOTECHNOLOGY CO. LTD., priority 2021, published 2024)
